Patent publication US20260117244A1, “INHIBITORY RNA FOR THE CONTROL OF PHYTOPATHOGENS” (priority 2021, published 2026)

B1: 122 (nucleic acid, listed as Golovinomyces orontii)
chain: ATGAAAGCCAAACACCTAATTCTGACCATAGCGCTTGCGGCTACTGCGAGGGCAGAAGATCAATATGATGCTTCTGAACTACCACAGTTGAAACATCAGCAGTTAAGAATACCTTTTCCGACAGCTATTGCTGAATCGAAGTGCAGCTGTGCCACTGAATATATAACATCTACAGGCGAGGGTTTTCTTTATACTGCTGATGTATCATCAATTACCAAAAATTTTGATCCGCAACCGACTCACGAGTATCCTCTAATCGTTGAACCATCCATATCCGTTAATTGTCCGCCCCCGTCCACCATTACTGTAACCGAGACAAAATATATTACTTTGATGCCTGATCTAGCACCATCTGATCCTGCTAGTCCGATCTTAGAACCGCAAAATACCGATGCCGGACCAAACTCTCCATTAAATCCCTCTAGCCCGATATTAGATCACCCAAATACTGATACTGGGCCGCCTTCTCCACCTGCTCCAGTCGTTTCTAACATTGAGATATCTCCGTCAGCCCCAGACCCCAGCCCTGAAGTATCTTCAAAACCACATACTGGCACACTGGGATCTAACAATGGTCTGTGGGCAATCACTTTTTCTCCATTTAATGATGATGGAACGTGCAAAGGTGAGACTGCTGTTTGGGAAGATGTGCGCTTGATTCGTAGCGCTGGCTTCAAGGCAATTCGTGTCTATGGTACTGAATGTTCGGGAATTGAACACGTCAGTTCTGCCGCCAGTTTTCACGGACTAAAACTTATTATCGGTATATTTATCAGCGAATCTGGTTGTTCTGGTGCTGCGGAGCAAGTAACTCATATCACAAAATGGGCCAAATGGGAAATTGTCGAGCTAATTGTGATTGGAAACGAAGCCCTATTTAATGGCCATACTTCTCCAGATGAGCTCGCAAGATTTATTAGCTCAACCAGAAATACACTACGATCCTCTGGTTACAATGGACCTTGCACAACAGCTGAGCCTCTCAATATCTGGCAGCAAAGCTCGGATGTATTGTGTGGTGCAGTTGATATCGTTGGATGTAACATTCATCCATTTTTCAATCCAGAAGTTGACGCTAGTCATGCCGGACCTTTCGTCAAGAGTCAGCTCGAAATTGTTAATAACATTTGTCCAAGCAAATATGGTATCAACCTCGAATGTGGATGGCCTTCGGCTGGCGAGTGCAACGGCAAGGCTTGTCCTGGTGAGTCGGAGCAAAAAATTGCTGTGGAAAGCATTCAGTCATTTGCTGGCAACGTGTCGGTAATGTTTACATACACCAACGATAAATGGAAAGACCCAGGCCCCCTCAAGATTGAGCAGAGTTTCGGATTAATTAAGCTCCTGAATAGCCACTAG
modifications: listed as DNA
B2: 123 (nucleic acid, listed as Golovinomyces orontii)
chain: ATGTTGTGCTTCATTTCCATCTTCACAACAGCTCTCCTAATCTCTCCCTCCCTAGGAGTTAATTCAGCTCAGAACGGCGAAACTCCCGATGACGATTCATTAGGTTCTACGAAACACATGAACTTTGGCTCTGGTCTCTCTGAATTCAATGCTCATGAAGATATGTATGTTCCTGCCATGGATCTGAATGGGTTTAGAATAAAGCGACGACATTTTCAAAATGAAGGCTATTACTGCAGCAAATCGCGCAATCACCTCGAATTTACAAATCAATCTTTCGTGAAGAATGAAGCTAAGAAGGCATGCAAGGGTCTTGAAAGGTCAAAACACGAACACAAACACGAACATGAACATGAGCACGAAGATAAACATGAATATAAAGAATATGAAGAAGAAGAAGAAGAAGAAGAAGAAGAAGAAGAAGAAGAAAATAAAATAAAAAAAGGAAAGAAAGGAAAGAAACATTCCGATTACCCTCATCCATACAATGCAGTCAAATATGTAAAATATTCCCCACCATACTTCGAACACCGAATCCATGATGTGAAGAAAAATAAATCAGGTCTGAGCGTCATCATAGATATCGACTGTCATATTGTTGATGTTGTTGCTCTCAACCAAGATAAACGATACCATCAATGTGCCCGTGCATGA
modifications: listed as DNA
B3: 124 (nucleic acid, listed as Golovinomyces orontii)
chain: ATGTTCCTCAGAGCTTCGTTGACCTTCTGGGCTCTCTTGGCCACAGAGATAAGTCTGTCCACGACAGCCTCCGTTAGACGACTGGAGAATCGCGAGGTTGTTGACGATATTAATGACAATGGAATCATGATTGAGTGGGCAAGATGCAAAGGTAGACACTACGATAAAGATGAAATATATGAAACGCTCAAACAAGCTTGTGAGACGAAAAATTCATCTACCATTTTTGAAAAAGCCGTCAATCTTCGTCCACATATCCCATCGTCATCAGAGAAGTATCATCATGAGATCAACCCTCCCTACTACGCGTACTCTCTGCATGATACCGTATTCAAAGATAAACTACATCCAATCGATGTTATCGTGATGAACGATGAATGTAAGCTGGCTGGTGTACTCATGGAGACCACCAAGATCAGCTGCAACGACGACACGTGCGGCTCCGAACCCCGGTACAAAGATTGTGAGATCCGATTAACGAAAACCGCTCCGACGTCGACAGAGACGACTCAGGTTGCGGAATTGTCTTGA
modifications: listed as DNA
B4: 140 (nucleic acid, listed as Golovinomyces orontii)
chain: ATGCAATTCACTCAACTTCTCATCTTAGCCTTCGTCGCTTGCGTGGCTGCTACACCATCAGGATTGAACTTTTACGCGCGAAGAACTGACGGTGGAGACGACGAATCACCACAGACATGTACTCAGGCCCTACAAGCTATTCCCAAGTGCGCTCTGAGTTGCATCACACAACCCCCAATCGACGCCGGTTGCAAATCAGCTGCTGACTTCGCTTGCACCTGTGAGAAAAAGACCCAAAAACAAATTACAAAGGCAGAAACTCCTTGTGTTCTCAAGGCTTGCGGACTAAAAGAGGCACTTGCTGCTTCTAAGGCTGGAAAAGCTGTATGTGAGGCTTGCAACACATCCCCAAGCGACCCATCCGACGGTCACGGTGACGACGGAGATGACGATTCATACGATAGCTCTGATTCTGAATAA
modifications: listed as DNA
B5: 146 (nucleic acid, listed as Golovinomyces orontii)
chain: ATGGCTCAATCCCCGGACAGTAAGGTAGAGAAAGTCTTTACGACAAATCACCTCGGAATTGGCAGGCTCCAAGGAAAGAACGCAATTGTGACCGGAGCAGCAGGTGGTATCGGCTTGGAAACATGCATTTTATTCGCCAGAGAAGGTGCCAATGTTCTTTTGGCCGACATTTCAGCTCCAGCCCTAGAAAAAGCATATGCCAAGATTGCTCAACTTGTACCTTCGGCTCGCAAGGTCGAGAAAATGCTATGTGATGTTTCCAAGGAGGGAGACGTCAAAGCTATGGTTGACCATGTTGATTCATGGGGTGGTGTTGACATTATTTTTAACAATGCGGGCATAATGCATGCTGATGATGCTGATGCAGTTGACACCCCTGAGAAGATTTGGGATCTCACTCAGGCTATCAACGTGAAAGGTGTCTGGTTCGGCTGCAAACATGCAGTCATCTCATTTCGAAAGCATAAAAAGTCAAAGGGCTGTGTCATCAATACAGCCTCTGTTGTTGCTTTGGTGGGATCTGCAACTCCACAACTTGCCTACACCGCGAGTAAAGGAGCTGTTCTAGCTCTAACGCGGGAGCTTGCAATTGTACATGCACGCGAGGCGCCGTTGAACACTCCCTTACTTCAGGATTGGCTTGGAGATGACCAGCCTAAGCGACTTCGTCGGGAAATTCATTTTCCATGTGGCCGCTTCGGCGAAGCTGTTGAACAAGCTCGTGCTGTTCTTTTCTTAGCTTCCGATGACGCCAATTTCATTAATGGGCAGGAATTTGTTGTCGATGGCGGAATGACTAAAGCATATGTGACTCCAGAAGGTCCCCCGACCGAGGCGCCTATAAATAACTCATTACTCTCTGAGCCAATCGATAATTTTAAGACCACTAACTCATCAGACATGGGAGTTTGA
modifications: listed as DNA
B6: 167 (nucleic acid, listed as Golovinomyces orontii)
chain: ATGCTTCTAACTAAGATTCACACCGCACCAGAACTAGACTCATTTACAGCACTCGAAGATCATCAATCAAAGACTCCCGACAAATTTTATGAAACGAAACCTGTCCTATACTTTCATGACAATAATGCCAGAGCTCTTATCGTCAAAAGTCAGCTTGTCAAATTACCCATCTGTGAATTAAATTCTTCGGAAAATGAACCTGAATCAAGCCCAAAAATAGCTAATGTCGAAGTGTTTGTCAATTCCCAGAAATTGATTATATTTAACCCTGTCGAATGCATTGGCTACGCTATTCCCTACTCAGCGATTACTCTTCATGCTATCCAGAGATTAAAAGATCCAATAGATTCATATCTGGAAATACAAGGACTCTACATGCAAATAAATATATCAGATTGCAGTGGTGACGAACAACAAGATGAAGATTCGACCTATGTAGATCTAACTCTCATACCATCACTCAACTCTGATACCATAACTAAACCAAGAATCCAAACACTCTACGAGGCGGTCTCTGCCTGTTCCGACTTAAATCCTGACTTGAATCCGGAAGACGATGGGATAACTGAAGATGTAGGTGAAGAATCTAGGATAATATTTGAAGGCACTGATGGTCTTCCTGGTGTTTTCAACGGCGGATCAGATGGCAACCTCCCACCGCCGTTTCCTGGTAGTGGGGGATGGATAACAGCTGAGAATATGTCTCAATTTTTAGACGAAGAAGGTAATTGGATTGGGAAAAGCGATAACGGTGAGGATTCAATGGTTATCGGATAA
modifications: listed as DNA
B7: 169 (nucleic acid, listed as Golovinomyces orontii)
chain: ATGGATATGGATATGAATATGAGCACAGGAATGAATGCAAGTCCAATAATCGGAGGCAACGAAGTCCATTCACATCCAATGGATATGGGAAGGGATATGTCGATGACTTTTTTTAATGGCATGACAACTAAACTCTATACCTCGACGTGGGCACCAAAAAGTTTAGGCACTTATATAGCGACTTGTTTATTTCTCATCGCTTTATCCAGCATATCTAGGTTTCTATTAGCCGCCAAGTTATGGCTAGAAACAACTTGGATGAACGCTGAGCTCAATCGAAAATATGTTACGGCTGCTGGAAAAGTACCAATCTCAGAACAGATTTCAATGAAGTCTGAAGCTCGGCAAATGGTACTATCTGGAAATGGTTTTGAAGAAGATGTGATAGTCGTTCAAAAGAAAGGATTCCGTGTACGGCCCTGGAGTATTACTGTGGATCCAATCCGAGCGCTGATAGACACCACAATTATGGCAGTGGGATTATTAATAATGCTGGCCGTTATGACAATGAATATTGGGTATTTTATATCGGTTTTGATAGGCACATTTATTGGCAGCCTAGTTGTCGGGCGTTATTCTCCTGAATAA
modifications: listed as DNA
B8: 179 (nucleic acid, listed as Golovinomyces orontii)
chain: ATGCAGATCTCACGCATCACATTTATCTCTTTCTTCATCGCCCTTGTCGCGGCTCATCCAACTCTTAATGAACGACAAACAATTACCATCCCAAAAATTCCTGAAGTTCCAGCCGTCCCCGAAGTTCCCGCTGTTCCTGAAGTACAAAAGCGTCAACAGACGATAACTGTTCCCACGATCCCCACGATTCCTACCGTGCCAGATGTTCCTGCTGACACACGAATAAAGCTGTCCACAAACTCAATGGCTACGCCAAACTCTATGCTGGACAAGAGACCTGAAGTGTGGCATATCCATGATAACCGGATAACTGGTCGGAAAATATTCAAAGCTAAATGA
modifications: listed as DNA

System: G. orontii MGH1
Assay: Spray-induced gene silencing (SIGS), G. orontii spore production on A. thaliana (whole plant and detached leaf assays)
Type: in vivo, Golovinomyces orontii
Conditions: topical dsRNA against G. orontii target (Gor Seq ID), n>=3

Molecule	G. orontii Spore Production on Arabidopsis, Whole Plant Assay, % reduction [%]	G. orontii Spore Production on Arabidopsis, Detached Leaf Assay, % reduction [%]
B1	33	
B2	32	38
B3	33	
B4	60	37
B5	42	63
B6		39
B7		54
B8	41	
